This passage reports Kd results from PMC11336900, “Nanobody‐Engineered Biohybrid Bacteria Targeting Gastrointestinal Cancers Induce Robust STING‐Mediated Anti‐Tumor Immunity” (Advanced Science, 2024).

Numbering of substitutions follows the chain as printed.

Assay [1] concerns the target T1, human CDH17 protein fragment, domain 1–3 (Homo sapiens, UniProt Q12864).
T1 construct: cadherin 17 (CDH17), human, domain 1–3; also called cadherin 17; CDH17 antigen; source: E. coli BL21(DE3), purified (Ni-NTA, gel filtration)
The assay can be described thus: SPR; affinity determination of nanobodies against human and murine CDH17 proteins. Particulars: both partners purified.

The target in assay [2] is T2, murine CDH17 protein fragment, domain 1–3 (Mus musculus, UniProt Q9R100).
T2 construct: cadherin 17 (CDH17), mouse, domain 1–3; also called mouse CDH17; source: E. coli BL21(DE3), purified (Ni-NTA, gel filtration)
The description is as above. Particulars: both partners purified.

T1 sequence (Q12864 whole entry, looked up, the tested form may be a part): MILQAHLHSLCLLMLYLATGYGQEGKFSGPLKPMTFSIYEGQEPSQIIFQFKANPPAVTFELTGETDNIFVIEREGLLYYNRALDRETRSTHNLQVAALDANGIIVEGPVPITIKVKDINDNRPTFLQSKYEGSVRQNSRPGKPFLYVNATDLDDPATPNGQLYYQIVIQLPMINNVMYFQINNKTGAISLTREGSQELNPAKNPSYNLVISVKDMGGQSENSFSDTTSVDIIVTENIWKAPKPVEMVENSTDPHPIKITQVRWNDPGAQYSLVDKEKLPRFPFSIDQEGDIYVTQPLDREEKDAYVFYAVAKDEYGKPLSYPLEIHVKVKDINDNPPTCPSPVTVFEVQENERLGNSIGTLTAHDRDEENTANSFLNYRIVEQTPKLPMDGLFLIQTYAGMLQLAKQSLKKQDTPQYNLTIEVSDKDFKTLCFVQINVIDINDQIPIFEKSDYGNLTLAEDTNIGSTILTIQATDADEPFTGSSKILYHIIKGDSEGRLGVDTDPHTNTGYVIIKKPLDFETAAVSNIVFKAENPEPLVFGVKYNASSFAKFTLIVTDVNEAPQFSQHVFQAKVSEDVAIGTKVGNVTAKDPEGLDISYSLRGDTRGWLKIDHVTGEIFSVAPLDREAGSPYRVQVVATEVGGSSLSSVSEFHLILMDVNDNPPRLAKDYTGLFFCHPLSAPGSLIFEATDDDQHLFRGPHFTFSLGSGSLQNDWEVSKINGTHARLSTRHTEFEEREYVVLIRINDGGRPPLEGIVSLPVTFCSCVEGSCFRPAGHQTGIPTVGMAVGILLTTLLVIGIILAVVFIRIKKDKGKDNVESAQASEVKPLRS
T2 sequence (Q9R100 whole entry, looked up, the tested form may be a part): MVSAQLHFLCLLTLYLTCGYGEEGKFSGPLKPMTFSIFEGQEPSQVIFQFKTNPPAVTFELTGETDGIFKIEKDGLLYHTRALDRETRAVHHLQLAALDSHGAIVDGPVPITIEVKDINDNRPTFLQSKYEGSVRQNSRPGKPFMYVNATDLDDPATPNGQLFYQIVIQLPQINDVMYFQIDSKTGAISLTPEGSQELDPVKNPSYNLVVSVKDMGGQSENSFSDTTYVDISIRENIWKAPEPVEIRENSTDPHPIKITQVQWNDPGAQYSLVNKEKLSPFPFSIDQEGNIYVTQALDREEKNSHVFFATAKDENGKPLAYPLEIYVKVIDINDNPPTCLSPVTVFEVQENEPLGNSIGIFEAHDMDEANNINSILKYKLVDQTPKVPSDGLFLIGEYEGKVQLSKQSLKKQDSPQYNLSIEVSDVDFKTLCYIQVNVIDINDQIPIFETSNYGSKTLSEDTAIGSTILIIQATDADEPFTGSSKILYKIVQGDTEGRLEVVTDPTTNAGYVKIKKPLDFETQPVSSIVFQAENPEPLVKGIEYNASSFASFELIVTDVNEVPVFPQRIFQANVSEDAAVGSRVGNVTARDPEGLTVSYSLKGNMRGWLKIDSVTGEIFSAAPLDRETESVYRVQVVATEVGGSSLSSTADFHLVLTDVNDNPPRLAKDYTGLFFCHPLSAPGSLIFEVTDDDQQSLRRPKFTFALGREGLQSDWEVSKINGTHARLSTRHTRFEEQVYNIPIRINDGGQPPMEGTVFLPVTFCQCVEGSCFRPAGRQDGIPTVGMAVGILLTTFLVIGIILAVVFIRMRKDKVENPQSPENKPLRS

B1: CDH17 nanobody Nb535 (VHH)
VHH: AVQLVESGGGLVQPGGSLRLSCAASGRTFSSNGMGWFRQAPGKGREFVAAISWNAGTTLYTDSVKGRFTISRDNAKNTVYLQMNSLKPEDTAIYYCAAREYYGGSYYPSREYEYGYWGQGTQVTVSS
notes: source: prokaryotic vector pColdII (TAKARA), purified (Ni-NTA); not shown: HA, C-terminal, kept
For the molecule B1, the Kd in assay [1] came out at 60.1 nM; in assay [2], 109 nM.

B2: CDH17 nanobody Nb289 (VHH)
VHH: B1 VHH with P14A, G16D, K43T
notes: as the VHH of m5 (A1) with one amino acid difference at position 44; also called Nb289 nanobody; source: prokaryotic vector pColdII (TAKARA), purified (Ni-NTA); not shown: HA, C-terminal, kept
Consider B2, for which the Kd in assay [1] stood at 20.1 nM; in assay [2], 32.5 nM.

One may read the Kd as the concentration at which binding is half-saturated. Read a low Kd as tighter binding.
